# B1: SRP72 (natural protein)
# chain: MASGGSGGVSVPALWSEVNRYGQNGDFTRALKTVNKILQINKDDVTALHCKVVCLIQNGSFKEALNVINTHTKVLANNSLSFEKAYCEYRLNRIENALKTIESANQQTDKLKELYGQVLYRLERYDECLAVYRDLVRNSQDDYDEERKTNLSAVVAAQSNWEKVVPENLGLQEGTHELCYNTACALIGQGQLNQAMKILQKAEDLCRRSLSEDTDGTEEDPQAELAIIHGQMAYILQLQGRTEEALQLYNQIIKLKPTDVGLLAVIANNIITINKDQNVFDSKKKVKLTNAEGVEFKLSKKQLQAIEFNKALLAMYTNQAEQCRKISASLQSQSPEHLLPVLIQAAQLCREKQHTKAIELLQEFSDQHPENAAEIKLTMAQLKISQGNISKACLILRSIEELKHKPGMVSALVTMYSHEEDIDSAIEVFTQAIQWYQNHQPKSPAHLSLIREAANFKLKYGRKKEAISDLQQLWKQNPKDIHTLAQLISAYSLVDPEKAKALSKHLPSSDSMSLKVDVEALENSAGATYIRKKGGKVTGDSQPKEQGQGDLKKKKKKKKGKLPKNYDPKVTPDPERWLPMRERSYYRGRKKGKKKDQIGKGTQGATAGASSELDASKTVSSPPTSPRPGSAATVSASTSNIIPPRHQKPAGAPATKKKQQQKKKKGGKGGW
# B2: SRP68/72 complete heterodimer (complex)
# chain 1: MAAEKQVPGGGGGGGSGGGGGSGGGGSGGGRGAGGEENKENERPSAGSKANKEFGDSLSLEILQIIKESQQQHGLRHGDFQRYRGYCSRRQRRLRKTLNFKMGNRHKFTGKKVTEELLTDNRYLLLVLMDAERAWSYAMQLKQEANTEPRKRFHLLSRLRKAVKHAEELERLCESNRVDAKTKLEAQAYTAYLSGMLRFEHQEWKAAIEAFNKCKTIYEKLASAFTEEQAVLYNQRVEEISPNIRYCAYNIGDQSAINELMQMRLRSGGTEGLLAEKLEALITQTRAKQAATMSEVEWRGRTVPVKIDKVRIFLLGLADNEAAIVQAESEETKERLFESMLSECRDAIQVVREELKPDQKQRDYILEGEPGKVSNLQYLHSYLTYIKLSTAIKRNENMAKGLQRALLQQQPEDDSKRSPRPQDLIRLYDIILQNLVELLQLPGLEEDKAFQKEIGLKTLVFKAYRCFFIAQSYVLVKKWSEALVLYDRVLKYANEVNSDAGAFKNSLKDLPDVQELITQVRSEKCSLQAAAILDANDAHQTETSSSQVKDNKPLVERFETFCLDPSLVTKQANLVHFPPGFQPIPCKPLFFDLALNHVAFPPLEDKLEQKTKSGLTGYIKGIFGFRS
# chain 2: B1 chain
# B3: Chloroplast SRP54 from Arabidopsis thaliana (natural protein)
# chain: EMFGQLTGGLEAAWSKLKGEEVLTKDNIAEPMRDIRRALLEADVSLPVVRRFVQSVSDQAVGMGVIRGVKPDQQLVKIVHDELVKLMGGEVSELQFAKSGPTVILLAGLQGVGKTTVCAKLACYLKKQGKSCMLIAGDVYRPAAIDQLVILGEQVGVPVYTAGTDVKPADIAKQGLKEAKKNNVDVVIMDTAGRLQIDKGMMDELKDVKKFLNPTEVLLVVDAMTGQEAAALVTTFNVEIGITGAILTKLDGDSRGGAALSVKEVSGKPIKLVGRGERMEDLEPFYPDRMAGRILGMGDVLSFVEKATEVMRQEDAEDLQKKIMSAKFDFNDFLKQTRAVAKMGSMTRVLGMIPGMGKVSPAQIREAEKNLLVMEAMIEVMTPEERERPELLAESPERRKRIAKDSGKTEQQVSALVAQIFQMRVKMKNLMGVMEGGSIPALSGLEDALKAEQKAPPGTARRKRKADSRKKFVESASSKPGPRGFGSGN
# B4: Ffh from E. coli (natural protein)
# chain: MFDNLTDRLSRTLRNISGRGRLTEDNVKDTLREVRMALLEADVALPVVREFINRVKEKAVGHEVNKSLTPGQEFVKIVRNELVAAMGEENQTLNLAAQPPAVVLMAGLQGAGKTTSVGKLGKFLREKHKKKVLVVSADVYRPAAIKQLETLAEQVGVDFFPSDVGQKPVDIVNAALKEAKLKFYDVLLVDTAGRLHVDEAMMDEIKQVHASINPVETLFVVDAMTGQDAANTAKAFNEALPLTGVVLTKVDGDARGGAALSIRHITGKPIKFLGVGEKTEALEPFHPDRIASRILGMGDVLSLIEDIESKVDRAQAEKLASKLKKGDGFDLNDFLEQLRQMKNMGGMASLMGKLPGMGQIPDNVKSQMDDKVLVRMEAIINSMTMKERAKPEIIKGSRKRRIAAGCGMQVQDVNRLLKQFDDMQRMMKKMKKGGMAKMMRSMKGMMPPGFPGR
# Biological target: human 80S ribosome (non-translating, Puromycin-treated monosomes) (human (endogenous in HeLa))
# Assay: MST
Molecule,Kd,concentration of saturation,"KD1 (two-site fit, PALMIST)",KD of the first (high-affinity) binding event,stoichiometry N
quaternary SRPS complex with the SRP68/72 heterodimer without the SRP72 C-terminus (RNA/SRP19/SRP68/72ΔC) (from UniProt P09132;Q9UHB9;O76094),370 nM,,,,
SRαΔRBR/SRβ (from UniProt P08240;Q9Y5M8) (complex),> 7500 nM,,,,
SRP54MΔC (domain or fragment),100 nM,,,,
SRPS/SR complex with SRP54 (without signal sequence) (from UniProt P09132;Q9UHB9;O76094;P61011;P08240;Q9Y5M8),< 1.4 nM,,,,
"complete SRPS (SRP S domain: SRPS RNA, SRP19, SRP68/72 and full-length SRP54) (from UniProt P09132;Q9UHB9;O76094;P61011) (complex)",< 4.7 nM,,,,
entire human SRP (native 7SL RNA and all six SRP proteins) (from UniProt P49458;P37108;P09132;Q9UHB9;O76094;P61011) (complex),,< 2.2 nM,,,
SRPS/SR complex with SRP54ΔC (without signal sequence) (from UniProt P09132;Q9UHB9;O76094;P61011;P08240;Q9Y5M8),< 1.2 nM,,,,
"complete SRPS with SRP54ΔC (SRPS RNA, SRP19, SRP68/72 and SRP54ΔC) (from UniProt P09132;Q9UHB9;O76094;P61011) (complex)",< 4.7 nM,,,,
SRP72-RBD+C (C-terminal region of SRP72 including the RBD) (domain or fragment),920 nM,,,,
SRP54NG (domain or fragment),1650 nM,,,,
SRαβ heterodimer (SRP receptor; full-length SRα with SRβ lacking its N-terminal TMD) (from UniProt P08240;Q9Y5M8) (complex),410 nM,,,,
SRP68/72ΔC (SRP68/72 heterodimer with the C-terminus of SRP72 truncated) (from UniProt Q9UHB9;O76094) (complex),420 nM,,,,
SRP54ΔC (domain or fragment),200 nM,,< 100 nM,100 nM,
quaternary SRPS complex with the truncated SRP68/72–RBD constructs (RNA/SRP19/SRP68-RBD/SRP72-RBD in (from UniProt P09132 1-144),1650 nM,,,,
ternary SRPS complex (SRP RNA/SRP19/54) with full-length SRP54 (from UniProt P09132;P61011),< 4.7 nM,,,,1
SRPS/SR complex with SRP54ss (signal sequence fused to SRP54) (from UniProt P09132;Q9UHB9;O76094;P61011;P08240;Q9Y5M8),< 2 nM,,,,

# Biological target: rabbit reticulocyte ribosome-nascent chain complexes exposing an SRP-targeting signal (rabbit | not stated)
# Assay: MST
row,Molecule,Kd
1,entire recombinant SRPS/SR system as measured with RNCs (from UniProt P09132;Q9UHB9;O76094;P61011;P08240;Q9Y5M8) (complex),< 0.9 nM

# Biological target: human 80S ribosome (non-translating, Puromycin-treated monosomes) (human (endogenous in HeLa))
# Assay: MST
# Remark: another data set of the same source
Molecule,EC50,Kd
B1,520 nM,820 nM
B2,160 nM,
B3,,> 1200 nM
B4,,2300 nM

# — publication PMC6451106
